Data on one substance can be found in PMC8795526.

The experiment addresses human neonatal Fc receptor (hFcRn) (human) (UniProt P55899). Description: SPR. In general terms: In SPR one partner is held on a chip, and binding of the other changes the refractive index at the surface.
Chain of UniProt P55899 (P55899 24-297, chain 1 of 2): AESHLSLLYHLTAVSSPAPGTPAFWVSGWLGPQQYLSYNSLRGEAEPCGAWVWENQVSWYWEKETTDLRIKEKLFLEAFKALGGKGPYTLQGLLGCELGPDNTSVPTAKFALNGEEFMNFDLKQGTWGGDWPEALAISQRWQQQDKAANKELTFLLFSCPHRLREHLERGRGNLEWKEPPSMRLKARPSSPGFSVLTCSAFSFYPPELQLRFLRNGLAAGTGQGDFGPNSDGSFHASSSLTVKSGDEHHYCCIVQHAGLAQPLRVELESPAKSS
Chain of UniProt P55899 (P61769 21-119, chain 2 of 2, further chain): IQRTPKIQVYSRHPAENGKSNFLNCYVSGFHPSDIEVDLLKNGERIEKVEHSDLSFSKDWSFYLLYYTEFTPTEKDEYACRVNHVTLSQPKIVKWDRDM

What is called Kd is the constant that tells how readily two partners part at equilibrium. Low readings indicate a tighter complex, high ones a looser complex. 3F6-hIgG1 (antibody): the Kd amounted to 538 nM.
